{"source": "patent US20090155853A1", "molecular_target": "human coxsackie virus B adenovirus receptor (CAR) expressed on CHO cells (CHO-hCAR) (human) (UniProt P78310)", "sequence (P78310 20-365)": "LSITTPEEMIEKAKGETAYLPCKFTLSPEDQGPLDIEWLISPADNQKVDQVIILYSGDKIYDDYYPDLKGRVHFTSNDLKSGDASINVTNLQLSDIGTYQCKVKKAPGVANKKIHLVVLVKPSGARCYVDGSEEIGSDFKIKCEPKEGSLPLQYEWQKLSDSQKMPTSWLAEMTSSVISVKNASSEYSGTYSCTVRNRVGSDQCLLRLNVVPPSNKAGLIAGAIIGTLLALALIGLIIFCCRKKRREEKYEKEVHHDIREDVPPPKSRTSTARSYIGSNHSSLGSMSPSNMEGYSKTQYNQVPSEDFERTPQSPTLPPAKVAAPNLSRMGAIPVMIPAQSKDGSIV", "assay": "cell-based or functional assay", "data": [{"substance": "HMG-PB/Fiber complex (HMG-PB plus Fiber protein) (from UniProt P12538 1-571; P11818 1-581)", "values": [{"measurement": "luciferase reporter plasmid delivery (luciferase gene expression) in CHO-hCAR against parental CHO cells", "value": 6, "unit": "times"}]}]}
